Experiments:
[1] = biological target: T1, recombinant human Netrin-4 (human, UniProt Q9HB63 19-628, limits assumed); test: ELISA screening of hybridoma culture supernatant
T1 sequence: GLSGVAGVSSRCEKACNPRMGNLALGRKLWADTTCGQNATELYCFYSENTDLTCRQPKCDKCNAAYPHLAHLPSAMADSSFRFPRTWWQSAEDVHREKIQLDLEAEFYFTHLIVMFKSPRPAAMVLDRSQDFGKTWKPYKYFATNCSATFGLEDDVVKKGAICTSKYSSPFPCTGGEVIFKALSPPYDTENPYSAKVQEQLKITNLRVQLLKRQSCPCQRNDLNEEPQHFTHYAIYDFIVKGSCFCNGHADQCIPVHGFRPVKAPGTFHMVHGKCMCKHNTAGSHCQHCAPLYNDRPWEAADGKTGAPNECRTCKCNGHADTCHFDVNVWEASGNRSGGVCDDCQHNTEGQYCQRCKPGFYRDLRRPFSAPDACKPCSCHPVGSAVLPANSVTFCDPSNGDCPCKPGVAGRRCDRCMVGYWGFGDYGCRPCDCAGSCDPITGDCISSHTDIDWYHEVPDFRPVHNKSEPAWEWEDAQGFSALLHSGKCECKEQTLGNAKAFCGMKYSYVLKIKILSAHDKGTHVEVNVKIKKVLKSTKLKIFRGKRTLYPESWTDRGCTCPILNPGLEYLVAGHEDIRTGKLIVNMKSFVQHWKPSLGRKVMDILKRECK
Text: (§1) Four mice were immunized with the epitope peptide. After four immunizations, the blood was collected to determine the antibody titers using ELISA against recombinant human Netrin-4 and TGGEVIFKALS peptide. Mouse lymphocytes with increased antibody titers were fused with myeloma cells, and cultured in HAT medium to produce hybridomas. About ten days after cell fusion, antibody production in the culture supernatant was screened by ELISA (against recombinant human Netrin-4 and TGGEVIFKALS peptide), and 95 positive wells were selected. Primary cloning was then performed by limiting dilution, followed by screening by ELISA (against recombinant human Netrin-4 and TGGEVIFKALS peptide). Secondary cloning was then performed by limiting dilution, followed by screening by ELISA (against recombinant human Netrin-4 and TGGEVIFKALS peptide). A single clone was selected. The selected clone was expanded, and cultured at a high density in a serum-free medium. The culture medium was collected and purified on a protein A column to produce IgG. Purity was measured using AKTA-FPLC, and the titer was measured by ELISA. IgG was further purified with low endotoxin levels and used for the subsequent experiments.

[2] = biological target: T2, TGGEVIFKALS peptide (amino acid residues 192 to 202 of human Netrin-4) (human); test: ELISA screening of hybridoma culture supernatant
T2 construct: The immunogen was C-Ahx-TGGEVIFKALS linked to bovine thyroglobulin; The ELISA antigen is named only as the TGGEVIFKALS peptide
T2 peptide: TGGEVIFKALS
Text: as §1

B1: anti-Netrin-4 monoclonal antibody produced by the hybridoma cell line Human Netrin-4 (192-202)-6A1 (Accession No. NITE BP-03603) (antibody, V domains shown)
VH: QVQLHQSGPELVRPGASVTLSCKASGYTFTDYEMHWVKQTPVHGLEWIGAIDPETGDTVYNQKFKGKATLTADKSSSTAYMELSSLTSEDSAVYYCVDGFSDHYWGQGTTLTVSS
VL: VLVLTQTPLSLPVRLGDRASISCRSSQSLVHSSGNTFLHWYLQKPGQSPKLLIYKVSSRFSGVPDRFSGSGSGTDFTLKISRMEAEDLGVYFCSQSTHIPYTFGGGTKLEIKR
notes: In the ELISA screens the antibody was hybridoma culture supernatant
B1: binds [1]; binds [2].

— US20250270305A1 (OSAKA UNIVERSITY, published 2025)
